Source: PMC5377324

Experiments:
Test in all cases: ITC
[1] = target: Atx3_(22Q)-IIC (C-terminal fragment, residues 221-373, of isoform-II Atx3, 22Q)
[2] = target: Atx3_(6Q)-IIC (C-terminal fragment, residues 221-373, of isoform-II Atx3, polyQ truncated to 6Q)
[3] = target: Atx3_(46Q)-IIC (C-terminal fragment, residues 221-373, of isoform-II Atx3, polyQ expanded to 46Q)

| Substance | Kd [1] [µM] | Kd [2] [µM] | Kd [3] [µM] |
| --- | --- | --- | --- |
| K48-diUb (Lys48-linked di-ubiquitin) (from UniProt P0CG48 1-76) (complex) | 50 | 50 | 50 |
| P97N (N-terminal domain of P97, residues 1-213) (from UniProt P55072 1-213) (domain or fragment) | 10 | 10 | 10 |
